Measurements as given in doi:10.64898/2025.12.08.693081.
Read-outs that look alike come from different tables or passages of the source.

How the values were obtained:
Assay in all cases: cryo-EM structure
[1] = target: Angavokeley (AngV) fusion (F) protein ectodomain (Angavokeley virus (AngV))
[2] = target: Angavokeley (AngV) fusion (F) protein ectodomain (Angavokeley virus (AngV)); remark: listed apart in the source
[3] = target: Hendravirus alpha2 -F protein (Hendra virus) (UniProt O89342)

“Angavokeley (AngV) fusion (F) protein ectodomain (domain or fragment)” was tested. Which stoichiometry N [1] did it give?
The stoichiometry N was 6.

And the stoichiometry N [2]?
The stoichiometry N was 3.

“Hendravirus alpha2 -F protein (from UniProt O89342 27-494) (domain or fragment)” was tested. Which stoichiometry N [3] did it give?
Its stoichiometry N is 6.
